This note sets out measurements from paper PMC11335228.

What all share (conditions): remark: other sources report otherwise
Assay [1] concerns the target T1, DAP12, endogenous in macrophage-like differentiated THP-1 cells (human (endogenous in THP-1)), O43914. Kind of assay: non-reducing SDS-PAGE and western immunoblotting; membranes of differentiated THP-1 cells (wt and TREM2 ko; with or without MG132, lactacystin or chloroquine for 4 h); SDS sample buffer without DTT, 5 min 95 °C. For orientation: A western blot detects proteins with antibodies after separation by electrophoresis.

The target in assay [2] is T1, DAP12, endogenous in macrophage-like …. The description is as above. This is another data set of the same source.
In assay [3] the target is T2, DNAX-activating protein of 12 kDa (DAP12) wt, overexpressed in HEK293 cells, O43914. In words: SDS-PAGE and western immunoblotting; HEK293 cells transiently expressing DAP12 wt or DAP12 D50A with or without TREM2 (blots of Fig. 5A); SDS resistant oligomers.
In assay [4] the target is T2, DNAX-activating protein of 12 kDa …. Kind of assay: SDS-PAGE and western immunoblotting; membranes of HEK293 Flp-In cells stably overexpressing DAP12 alone or with TREM2 wt or TREM2 K186N; with or without proteasome inhibitors (Suppl. Figure S3).

Values joined by “and” are separate entries in the source; they are usually repeats but may differ in a detail not shown here. Equal entries are not always repeated.

B1: DAP12, endogenous in macrophage-like differentiated THP-1 cells, O43914 22-113 (natural protein)
chain: LRPVQAQAQSDCSCSTVSPGVLAGIVMGDLVLTVLIALAVYFLGRLVPRGRGAAEAATRKQRITETESPYQELQGQRSDVYSDLNTQRPYYK
With B1, the stoichiometry N in assay [1] worked out at 2; in assay [2], 3.

B2: DNAX-activating protein of 12 kDa (DAP12) wt, overexpressed in HEK293 cells, O43914 22-113 (natural protein)
chain: LRPVQAQAQSDCSCSTVSPGVLAGIVMGDLVLTVLIALAVYFLGRLVPRGRGAAEAATRKQRITETESPYQELQGQRSDVYSDLNTQRPYYK
With B2, the stoichiometry N in assay [3] is 3 and 4; in assay [4] it was 2 and 3.

For orientation: stoichiometry N means a count of units in the complex or per binding partner.
